Legend:
[1] = target: T1, human iRhom2, endogenously expressed (human, UniProt Q6PJF5 1-856); assay: cell-based or functional assay
T1 sequence: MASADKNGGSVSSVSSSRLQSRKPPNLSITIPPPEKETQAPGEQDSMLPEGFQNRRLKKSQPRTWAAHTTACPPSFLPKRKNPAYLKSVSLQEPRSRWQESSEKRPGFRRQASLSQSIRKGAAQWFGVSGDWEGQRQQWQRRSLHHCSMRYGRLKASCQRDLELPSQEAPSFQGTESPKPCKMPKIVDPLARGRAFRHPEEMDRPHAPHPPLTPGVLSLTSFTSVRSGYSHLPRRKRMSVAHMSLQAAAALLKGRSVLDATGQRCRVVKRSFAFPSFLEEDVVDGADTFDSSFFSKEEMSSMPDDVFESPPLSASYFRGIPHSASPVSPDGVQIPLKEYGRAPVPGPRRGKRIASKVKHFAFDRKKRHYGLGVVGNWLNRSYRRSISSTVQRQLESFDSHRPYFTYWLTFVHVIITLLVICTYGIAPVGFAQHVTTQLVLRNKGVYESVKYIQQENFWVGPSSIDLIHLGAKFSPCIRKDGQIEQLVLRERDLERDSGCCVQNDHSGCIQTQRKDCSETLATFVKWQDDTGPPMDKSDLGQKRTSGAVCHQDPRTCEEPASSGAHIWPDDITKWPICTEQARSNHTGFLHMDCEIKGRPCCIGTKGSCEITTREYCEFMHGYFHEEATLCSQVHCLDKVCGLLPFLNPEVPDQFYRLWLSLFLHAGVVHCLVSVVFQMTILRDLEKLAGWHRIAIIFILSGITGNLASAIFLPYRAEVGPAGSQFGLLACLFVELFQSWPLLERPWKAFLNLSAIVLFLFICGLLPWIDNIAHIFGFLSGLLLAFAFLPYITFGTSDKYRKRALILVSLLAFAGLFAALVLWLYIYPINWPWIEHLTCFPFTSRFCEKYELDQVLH

[2] = target: T2, human iRhom1, endogenously expressed (human, UniProt Q96CC6 1-855); assay: FACS on RH-30 cells (iRhom1-positive, not iRhom2-positive)
T2 construct: also called iRhom1 on RH-30 cells
T2 sequence: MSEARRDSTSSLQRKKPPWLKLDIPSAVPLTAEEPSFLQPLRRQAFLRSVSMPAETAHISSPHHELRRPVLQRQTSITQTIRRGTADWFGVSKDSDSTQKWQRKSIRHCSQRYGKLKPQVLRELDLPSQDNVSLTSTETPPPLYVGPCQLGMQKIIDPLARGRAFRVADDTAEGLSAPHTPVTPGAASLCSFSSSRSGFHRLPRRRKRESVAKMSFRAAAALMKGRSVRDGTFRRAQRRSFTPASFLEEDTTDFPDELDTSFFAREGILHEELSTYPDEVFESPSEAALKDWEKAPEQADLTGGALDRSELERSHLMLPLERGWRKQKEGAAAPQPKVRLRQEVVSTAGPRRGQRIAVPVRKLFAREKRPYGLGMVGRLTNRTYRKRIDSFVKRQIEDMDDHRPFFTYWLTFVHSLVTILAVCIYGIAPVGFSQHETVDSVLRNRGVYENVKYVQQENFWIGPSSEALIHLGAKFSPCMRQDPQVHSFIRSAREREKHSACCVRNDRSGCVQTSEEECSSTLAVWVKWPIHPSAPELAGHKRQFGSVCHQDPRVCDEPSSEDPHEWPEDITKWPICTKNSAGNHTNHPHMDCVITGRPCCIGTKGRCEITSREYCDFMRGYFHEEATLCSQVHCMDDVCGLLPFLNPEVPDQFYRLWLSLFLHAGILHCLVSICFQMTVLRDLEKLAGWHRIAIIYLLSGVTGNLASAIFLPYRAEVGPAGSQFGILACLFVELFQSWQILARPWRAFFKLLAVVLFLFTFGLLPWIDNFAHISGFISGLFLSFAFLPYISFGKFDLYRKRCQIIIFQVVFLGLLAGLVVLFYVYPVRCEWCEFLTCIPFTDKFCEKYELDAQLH

[3] = target: T3, dog iRhom2 full length wild type, T7-tagged (dog, UniProt Q00M95 1-827); assay: FACS on MEF-DKO-iR2 Dog cells, 3 µg/ml
T3 construct: whole, on cells; on MEF-DKO cells; also called Dog-iR2-FL-WT-T7
T3 sequence: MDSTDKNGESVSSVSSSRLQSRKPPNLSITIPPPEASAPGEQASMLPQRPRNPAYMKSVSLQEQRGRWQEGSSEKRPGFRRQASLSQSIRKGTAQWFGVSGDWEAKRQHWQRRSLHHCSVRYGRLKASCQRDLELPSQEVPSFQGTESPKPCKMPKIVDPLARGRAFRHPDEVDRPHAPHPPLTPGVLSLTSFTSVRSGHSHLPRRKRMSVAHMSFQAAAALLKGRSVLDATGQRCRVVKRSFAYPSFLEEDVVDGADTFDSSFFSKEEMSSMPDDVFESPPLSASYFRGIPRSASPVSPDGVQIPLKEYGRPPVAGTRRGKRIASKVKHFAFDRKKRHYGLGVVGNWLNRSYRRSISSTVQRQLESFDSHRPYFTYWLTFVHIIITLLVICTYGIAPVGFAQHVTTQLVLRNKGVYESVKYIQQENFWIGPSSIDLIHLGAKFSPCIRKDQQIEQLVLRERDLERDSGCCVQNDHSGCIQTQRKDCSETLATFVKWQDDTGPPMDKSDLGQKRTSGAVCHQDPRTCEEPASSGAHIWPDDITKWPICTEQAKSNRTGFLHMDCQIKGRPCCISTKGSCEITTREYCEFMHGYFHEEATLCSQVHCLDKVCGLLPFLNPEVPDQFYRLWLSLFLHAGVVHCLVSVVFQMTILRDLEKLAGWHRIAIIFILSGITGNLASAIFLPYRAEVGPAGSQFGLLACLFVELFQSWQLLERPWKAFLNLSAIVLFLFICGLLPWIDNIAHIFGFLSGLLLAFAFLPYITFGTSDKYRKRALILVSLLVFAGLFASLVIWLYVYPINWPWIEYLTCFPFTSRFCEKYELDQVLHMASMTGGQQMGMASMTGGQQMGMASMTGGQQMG
Procedure: In brief, immortalized MEF-DKO-EV control cells, MEF-DKO-rhesus-iR2-FL-WT-T7 cells, MEF-DKO-cyno-iR2-FL-WT-T7 cells, MEF-DKO-dog-iR2-FL-WT-T7 cells and MEF-DKO-rabbit-iR2-FL-WT-T7 cells, as well as their respective iRhom1 counterparts, were harvested with 10 mM EDTA in PBS, washed and resuspended in FACS buffer (PBS, 3% FBS, 0.05% sodium azide), and seeded in Nunc U-bottom 96-well plates (Thermo Fisher Scientific, USA) at approximately 3×10⁵ cells per well. To pellet cells and remove supernatants, the plates were centrifuged at 1,500 rpm and 4° C. for 3 minutes. For primary staining, cells were resuspended in 100 μl per well of either FACS buffer alone (controls), mouse monoclonal anti-T7 IgG (Merck Millipore, USA) at 3 μg/ml FACS buffer or the antibodies of the invention also at 3 μg/ml FACS buffer and incubated on ice for 1 hour.
Afterwards, plates were centrifuged at 1,500 rpm and 4° C. for 3 minutes and washed twice with 200 μl per well of FACS buffer. For secondary staining, cells were spun down and resuspended in 100 μl per well of PE-conjugated goat anti-mouse IgG F(ab′)2 detection fragment (Dianova, Germany) diluted 1:100 in FACS buffer. Protected from light, the cell suspensions were incubated on ice for 1 hour. […] Finally, cells were resuspended in 150 μl per well of FACS buffer and analyzed using a BD Accuri™ C6 Plus flow cytometer (Becton Dickinson, Germany).

Binder | LPS-induced TNFα release from PBMCs of rheumatoid arthritis patients, percent inhibition, 1 µg/ml, chimeric antibody [1] | PMA-induced HB-EGF release from PBMCs of rheumatoid arthritis patients, percent inhibition, 1 µg/ml, chimeric antibody [1] | PMA-induced HB-EGF release from THP-1 cells, percent inhibition, 3 µg/ml [1] | PMA-induced HB-EGF release from U-937 cells, percent inhibition [1] | PMA-induced IL-6R release from PBMCs of rheumatoid arthritis patients, percent inhibition, 1 µg/ml, chimeric antibody [1] | PMA-induced IL-6R release from U-937 cells, percent inhibition, 3 µg/ml [1] | PMA-induced TNFα release from U-937 cells, percent inhibition, 3 µg/ml [1] | binding result [2] | binding result [3]
chimeric antibody 16 (antibody, V domains shown, chimeric version of clone #16, made in CHO cells, detected with anti-human IgG; also called ch16; chl6 (so in the source)) VH: QVTLKESGPGILQPSQTLSLTCSFSGFSLSTFALGVGWIRQPSGRGLEWLAHIWWDDDKYYNPALKSRLTISKDTSKNHVFLKIANVDTADTATYYCARITTYYYGMDYWGQGTSVTVSS VL: DIVLSQSPATLSVTPGDSVSLFCRASQSIGNHLHWYQQESHASPRLLIKYASQSISGIPSRFSGSGSGTDFTLSINSVETEDFGMYFCQQSYNWPLTFGAGTKLELK | 83.6% | 66% | 73.6% | 101% | 72.3% | 84.3% | 93.7% | no binding (tested: 3 µg/ml) | binds
chimeric antibody 22 (antibody, V domains shown) VH: QVTLKESGPGILQPSQTLSLTCSFSGFSLSTFGMGVGWIRQPSGKGLEWLAHIWWDDEKYYNSALKSRLTISKATSKNQVFLKIANVDTADTATYYCARISNYGSNYWYFNVWGTGTTVTVSS VL: QVVLTQSPALMSASPGEKVTMTCSAGSSVSYMYWYQQKPGSSPRVLIYDTSNLASGVPARFTGSGSGTSYSLTISRMEAEDAATYYCQQWNSYPLTFGAGTKLELK | 76.5% | 54.7% | 81.9% | 103% | 61.1% | 85.6% | 96.5% | – | –
chimeric antibody 34 (antibody, V domains shown) VH: QVTLKESGPGILQPSQTLSLTCSFSGFSLSTFSLGVGWIRQSSGKGLEWLAHIWWDDEKYYNPALKSRLTISKDTSKNQVFLKIANVDAADTATYYCARAYYSKSYYALDYWGQGTSVTVSS VL: DIQMTQSPSSLSASLGERVSLTCRASQEISGYLSWLQQKPDGTIKRLIYAASTLDSGVPKRFSGSRSGSDYSLAISSLESEDFADYYCLQYANFPFTFGSGTKLEIK | 66.6% | 30.6% | 76.1% | 98.1% | 45.6% | 82.8% | 87.4% | – | –
chimeric antibody 42 (antibody, V domains shown) VH: QVTLKESGPGILQPSQTLSLTCSLSGFSLSTFGRGVGWIRQPSGKGLEWLAHIWWDDEKYYNPALKSRLTISKDTSKNQVFLRIANVDTADTATYYCARIQNYGSNYWYFDVWGTGTTVTVSS VL: LIVLTQSPAIMSASPGEKVTMTCGATSRISYMFWYQQKPGSSPRVLIYDTSNLASGVPVRFSGSGSGTSYSLTISRVEAEDVATYYCQQWNSYPLTFGAGTKLELK | 82.1% | 76.1% | 80.8% | 103% | 73.5% | 91.8% | 96.5% | – | –
chimeric antibody 44 (antibody, V domains shown) VH: QVTLKESGPGILQPSQTLSLTCSFSGFSLSTFGMGVGWIRQPSEKGLEWLAHIWWDDDKYYNPALKSRLTISKDTSKNQIFLKITNVDTAETATYYCSRIGNYGSNYWYFDVWGTGTTVTVSS VL: QIVLTQSPAVMSASPGEKVTMTCTASSSVYYMYWYQQTPGSSPRLLIYDTSNLASGVPVRFSGSGSGTSYSLTISRMEAEDAATYYCQQWNTYPLTFGAGTKLELK | 70.2% | 37.8% | 70.7% | 99.2% | 53.1% | 85.2% | 89.2% | – | –
